Consider ten molecules from US20240247080A1, “GLP1/GIP/NPY2 RECEPTOR TRIPLE AGONISTS” (Boehringer Ingelheim International GmbH, priority 2022, published 2024).

Starred links: 1 amine or outer side, 2 acyl side, 3 side chain; linkers in the order of their positions; H or OH if unused. Non-standard residues stand in square brackets, D forms with d. Groups on a side chain read outwards from the residue. No end group written: not given here. *: point of attachment. C20 diacid = O=C(O)CCCCCCCCCCCCCCCCCCC(=O)*; C18 diacid = O=C(O)CCCCCCCCCCCCCCCCC(=O)*; γGlu = O=C(O)[C@H](CCC(=O)[*:2])N[*:1]; AEEA = NCCOCCOCC(=O)O; Aib = CC(C)(N)C(=O)O; Ahx = NCCCCCC(=O)O; OEG = OEG spacer

Experiment in all cases: cell-based or functional assay
One assay deals with human GLP-1 receptor (human, UniProt P43220 24-463).
A further assay concerns the target T1, human GIP receptor (human, UniProt P48546 22-466).
T1 sequence (looked up): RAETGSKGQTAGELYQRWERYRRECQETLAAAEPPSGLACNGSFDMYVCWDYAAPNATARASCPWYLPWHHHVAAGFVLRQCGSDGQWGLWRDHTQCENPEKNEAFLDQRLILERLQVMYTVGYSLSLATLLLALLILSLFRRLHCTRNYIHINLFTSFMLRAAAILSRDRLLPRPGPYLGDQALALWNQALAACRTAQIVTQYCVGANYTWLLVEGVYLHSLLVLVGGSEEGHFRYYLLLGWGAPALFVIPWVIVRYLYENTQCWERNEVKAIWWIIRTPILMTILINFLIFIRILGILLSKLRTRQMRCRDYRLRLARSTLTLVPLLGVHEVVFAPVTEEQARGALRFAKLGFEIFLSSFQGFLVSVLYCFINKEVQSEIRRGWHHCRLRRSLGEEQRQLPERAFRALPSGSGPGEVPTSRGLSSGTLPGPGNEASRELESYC

The target in assay [1] is T2, human neuropeptide Y2 receptor (human, UniProt P49146 1-381).
T2 sequence (looked up): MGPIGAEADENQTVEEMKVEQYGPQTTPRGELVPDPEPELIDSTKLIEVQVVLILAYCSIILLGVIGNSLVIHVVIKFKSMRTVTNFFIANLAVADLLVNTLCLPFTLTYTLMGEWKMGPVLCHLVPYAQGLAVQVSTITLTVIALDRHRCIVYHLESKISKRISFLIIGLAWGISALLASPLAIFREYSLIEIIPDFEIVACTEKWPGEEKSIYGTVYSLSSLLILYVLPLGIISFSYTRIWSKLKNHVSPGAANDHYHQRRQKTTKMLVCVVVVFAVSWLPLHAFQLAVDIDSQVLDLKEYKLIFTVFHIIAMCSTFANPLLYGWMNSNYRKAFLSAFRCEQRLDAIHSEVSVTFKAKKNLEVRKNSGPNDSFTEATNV

B1: Compound 305 (peptide)
peptide: Y[Aib]EGTFTSDYSI[Aib]LEKQAQ[Aib]AFVEWLIK([γGlu-γGlu-γGlu-γGlu-γGlu-γGlu-C20 diacid])GGPSEGASLRHYYNWLTRQRY-NH2
modifications: also: TFA salt
Take B1: in the assay with human GLP-1 receptor, the “EC50 hGLP1R 0.5% hP (CreLuc)” value came to 0.29 nM and the “EC50 hGLP1R 100% hP (CreLuc)” value turned out to be 7.08 nM. In addition, in the assay with human GIP receptor, the “EC50 hGIPR 0.5% hP (CreLuc)” value was found to be 0.65 nM and the “EC50 hGIPR 100% hP (CreLuc)” value is 2.81 nM. In addition, in assay [1], the “EC50 hNPY2R 0.5% hP (CreLuc)” value is 18.2 nM and the “EC50 hNPY2R 100% hP (CreLuc)” value amounted to 101 nM.

B2: Compound 303 (peptide)
peptide: Y[Aib]EGTFTSDYSI[Aib]LEKQAQ[Aib]AFVEWLIK([Ahx-γGlu-γGlu-γGlu-γGlu-γGlu-γGlu-C18 diacid])GGPSEGASLRHYYNWLTRQRY-NH2
modifications: also: TFA salt
B2: in the assay with human GLP-1 receptor, the “EC50 hGLP1R 0.5% hP (CreLuc)” value was determined as 0.2 nM and the “EC50 hGLP1R 100% hP (CreLuc)” value was 4.42 nM. For the same molecule, in the assay with human GIP receptor, the “EC50 hGIPR 0.5% hP (CreLuc)” value is 0.36 nM and the “EC50 hGIPR 100% hP (CreLuc)” value is 2.36 nM. Also, in assay [1], the “EC50 hNPY2R 0.5% hP (CreLuc)” value stood at 33.3 nM and the “EC50 hNPY2R 100% hP (CreLuc)” value came to 122 nM.

B3: Compound 296 (peptide)
peptide: Y[Aib]EGTFTSDYSI[Aib]LEKQAQ[Aib]AFVEWLIKGGPSEGASLRHYYNWLTRQRY-NH2
modifications: not fully specified (residue 28); also: TFA salt
With B3, in the assay with human GLP-1 receptor, the “EC50 hGLP1R 0.5% hP (CreLuc)” value is 0.11 nM and the “EC50 hGLP1R 100% hP (CreLuc)” value stood at 3.5 nM. In the assay with human GIP receptor, the “EC50 hGIPR 0.5% hP (CreLuc)” value came out at 1.39 nM and the “EC50 hGIPR 100% hP (CreLuc)” value came out at 1.11 nM. Further, in assay [1], the “EC50 hNPY2R 0.5% hP (CreLuc)” value worked out at 14.1 nM and the “EC50 hNPY2R 100% hP (CreLuc)” value was found to be 56.5 nM.

B4: Compound 299 (peptide)
peptide: Y[Aib]EGTFTSDYSI[Aib]LEKQAQ[Aib]AFVEWLIK([AEEA-AEEA-γGlu-γGlu-γGlu-C18 diacid])GGPSEGASLRHYYNWLTRQRY-NH2
modifications: also: TFA salt
Turning to B4, in the assay with human GLP-1 receptor, the “EC50 hGLP1R 0.5% hP (CreLuc)” value was 0.08 nM and the “EC50 hGLP1R 100% hP (CreLuc)” value is 2.97 nM. Besides, in the assay with human GIP receptor, the “EC50 hGIPR 0.5% hP (CreLuc)” value was 0.4 nM and the “EC50 hGIPR 100% hP (CreLuc)” value amounted to 0.71 nM. Moreover, in assay [1], the “EC50 hNPY2R 0.5% hP (CreLuc)” value is 11 nM and the “EC50 hNPY2R 100% hP (CreLuc)” value was 31.6 nM.

B5: Compound 302 (peptide)
peptide: Y[Aib]EGTFTSDYSI[Aib]LEKQAQ[Aib]AFVEWLIK([Glu-Glu-Glu-Glu-Glu-Glu-C18 diacid])GGPSEGASLRHYYNWLTRQRY-NH2
modifications: also: TFA salt
For B5, in the assay with human GLP-1 receptor, the “EC50 hGLP1R 0.5% hP (CreLuc)” value was 0.15 nM and the “EC50 hGLP1R 100% hP (CreLuc)” value came to 6.05 nM. In the assay with human GIP receptor, the “EC50 hGIPR 0.5% hP (CreLuc)” value came to 0.33 nM and the “EC50 hGIPR 100% hP (CreLuc)” value was 3.87 nM. Also, in assay [1], the “EC50 hNPY2R 0.5% hP (CreLuc)” value stood at 31.9 nM and the “EC50 hNPY2R 100% hP (CreLuc)” value stood at 173 nM.

B6: Compound 297 (peptide)
peptide: Y[Aib]EGTFTSDYSI[Aib]LEKQAQ[Aib]AFVEWLIK([AEEA-AEEA-γGlu-γGlu-γGlu-γGlu-C18 diacid])GGPSEGASLRHYYNWLTRQRY-NH2
modifications: also: TFA salt
With B6, in the assay with human GLP-1 receptor, the “EC50 hGLP1R 0.5% hP (CreLuc)” value turned out to be 0.12 nM and the “EC50 hGLP1R 100% hP (CreLuc)” value came to 3.74 nM. For the same molecule, in the assay with human GIP receptor, the “EC50 hGIPR 0.5% hP (CreLuc)” value was 0.25 nM and the “EC50 hGIPR 100% hP (CreLuc)” value stood at 0.93 nM. Moreover, in assay [1], the “EC50 hNPY2R 0.5% hP (CreLuc)” value was determined as 14.4 nM and the “EC50 hNPY2R 100% hP (CreLuc)” value was 40.5 nM.

B7: Compound 300 (peptide)
peptide: Y[Aib]EGTFTSDYSI[Aib]LEKQAQ[Aib]AFVEWLIK([AEEA-γGlu-γGlu-γGlu-C18 diacid])GGPSEGASLRHYYNWLTRQRY-NH2
modifications: also: TFA salt
For the molecule B7, in the assay with human GLP-1 receptor, the “EC50 hGLP1R 0.5% hP (CreLuc)” value was found to be 0.11 nM and the “EC50 hGLP1R 100% hP (CreLuc)” value was 6.33 nM. In the assay with human GIP receptor, the “EC50 hGIPR 0.5% hP (CreLuc)” value amounted to 0.16 nM and the “EC50 hGIPR 100% hP (CreLuc)” value is 1.81 nM. Further, in assay [1], the “EC50 hNPY2R 0.5% hP (CreLuc)” value is 20 nM and the “EC50 hNPY2R 100% hP (CreLuc)” value turned out to be 89.3 nM.

B8: Compound 301 (peptide)
peptide: YXEGTFTSDYSIXLEKQAQXAFVEWLIKGGPSEGASLRHYYNWLTRQRY
modifications: Aib at 2, 13, 20; K28 side chain acylated with C20DA-gGlu-gGlu-gGlu-gGlu-gGlu-AHX; C-terminal amide (NH2)
With B8, in the assay with human GLP-1 receptor, the “EC50 hGLP1R 0.5% hP (CreLuc)” value came out at 0.23 nM and the “EC50 hGLP1R 100% hP (CreLuc)” value is 11.3 nM. In addition, in the assay with human GIP receptor, the “EC50 hGIPR 0.5% hP (CreLuc)” value came out at 0.58 nM and the “EC50 hGIPR 100% hP (CreLuc)” value is 3.27 nM. Also, in assay [1], the “EC50 hNPY2R 0.5% hP (CreLuc)” value worked out at 25.4 nM and the “EC50 hNPY2R 100% hP (CreLuc)” value turned out to be 99.3 nM.

B9: Compound 304 (peptide)
peptide: B8 peptide
modifications: Aib at 2, 13, 20; K28 side chain acylated with C18DA-gGlu-gGlu-gGlu-gGlu-gGlu-AHX; C-terminal amide (NH2)
For the molecule B9, in the assay with human GLP-1 receptor, the “EC50 hGLP1R 0.5% hP (CreLuc)” value came to 0.35 nM and the “EC50 hGLP1R 100% hP (CreLuc)” value amounted to 10.3 nM. Also, in the assay with human GIP receptor, the “EC50 hGIPR 0.5% hP (CreLuc)” value stood at 0.23 nM and the “EC50 hGIPR 100% hP (CreLuc)” value was found to be 2.35 nM. For the same molecule, in assay [1], the “EC50 hNPY2R 0.5% hP (CreLuc)” value stood at 35.7 nM and the “EC50 hNPY2R 100% hP (CreLuc)” value stood at 114 nM.

B10: Compound 298 (peptide)
peptide: Y[Aib]EGTFTSDYSI[Aib]LEKQAQ[Aib]AFVEWLIK([OEG-OEG-Glu-Glu-Glu-C18 diacid])GGPSEGASLRHYYNWLTRQRY-NH2
modifications: also: TFA salt
With B10, in the assay with human GLP-1 receptor, the “EC50 hGLP1R 0.5% hP (CreLuc)” value amounted to 0.11 nM and the “EC50 hGLP1R 100% hP (CreLuc)” value was 5.22 nM. Moreover, in the assay with human GIP receptor, the “EC50 hGIPR 0.5% hP (CreLuc)” value worked out at 0.13 nM and the “EC50 hGIPR 100% hP (CreLuc)” value came to 1.27 nM. Besides, in assay [1], the “EC50 hNPY2R 0.5% hP (CreLuc)” value was found to be 12.1 nM and the “EC50 hNPY2R 100% hP (CreLuc)” value was determined as 66.5 nM.
